Measured values published in patent publication US20130252821A1, “METHODS AND COMPOSITIONS FOR THE TREATMENT AND DIAGNOSIS OF DISEASES CHARACTERIZED BY VASCULAR LEAK, HYPOTENSION, OR A PROCOAGULANT STATE” (Beth Israel Deaconess Medical Center, Inc., priority 2005, published 2013).
Entries after “also recorded” stand apart in the source; their conditions may differ.

How the values were obtained:
Format in all cases: cell-based, human
Rac1 = Rac1 activity assay (pull-down)
Procedure: (§1) These were performed and quantified using the commercially available kit according to the manufacturer's instruction (Cytoskeleton, Denver, Colo.). After signal starvation, HMVEC-L were treated with vehicle, Ang-1 (100 ng/ml) with or without inhibitor for the indicated time and harvested with lysis buffer. Following a brief centrifugation to remove cell debris, lysates from the cells containing equivalent protein concentrations were incubated for 60 minutes with 40 μL slurry of a GST-fusion protein composed of Rac1 or RhoA effector proteins coupled to agarose beads. After washing with lysis buffer, samples were subjected to immunoblotting and detected with anti-Rac1 or anti-RhoA antibody (Santa Cruz Biotechnology, Santa Cruz, Calif.). Whole cell lysates were also run to determine the total amount of Rac1 or RhoA protein.

HMVEC monolayers = assay: Immunofluorescence of endothelial architecture (F-actin, VE-cadherin); details: 10% patient serum plus 100 ng/ml recombinant human Ang-1
Procedure: HMVEC were grown to confluence on glass coverslips coated with 1% gelatin. The cells were fixed for 10 minutes in 4% paraformaldehyde in PBS, incubated for 5 min in 0.5% Triton X-100 in PBS. After blocking, the monolayers were processed for staining with anti-VE-cadherin monoclonal antibody (BD Pharmingen, San Diego, Calif.) and Alexa Fluoro 488 goat anti-mouse IgG, rhodamine phalloidin (Molecular Probe, Eugene, Oreg.) for F-actin staining and TOPRO-3-iodine (Molecular Probe) for nuclear staining. Fluorescence images were obtained using a Bio Rad MRC confocal fluorescence microscope. For human subject serum experiments, serum was diluted to 10% with EBM-2 and filtered with low protein binding PVDF membrane (0.22 μm, Millipore Corp) prior to application on endothelial cell monolayers.

[1] = tested on: myosin light chain (MLC) phosphorylation in HMVECs; assay: MLC phosphorylation assay (Western blot); details: Ang-1 100 ng/ml added
Procedure: After signal starvation with 0.25% FBS EBM-2 for 24 h, cells were treated with 100 ng/ml Ang-2 or vehicle for 0, 1, 3, and 6 hours. Phosphorylated myosin light chain (MLC-p) (phospho-serine 19) and GAPDH were detected by Western blot analysis. For human subject serum effects on HMVECs, serum was diluted to 5% with EBM-2 and filtered with low protein binding PVDF membrane (0.22 μm, Millipore Corp, Bedford, Mass.). Anti-MLC-phospho-serine-19 Ab was obtained from Abcam Inc.

HMVEC-L monolayers = assay: Immunostaining of HMVEC-L bathed in HD IL-2 patient serum; details: 1:10 serum for 30 minutes, then Ang-1 100 ng/mL
Procedure: Human pulmonary arterial microvascular endothelial cells (HMVECs) (Cambrex Bio Science, Walkersville, Md., United States) cells were cultured in EBM-2 (Cambrex Bio Science) supplemented with 5% fetal bovine serum (FBS) and growth factors according to the manufacturer's instructions. Serum starvation was performed by incubation in 0.25% FBS/EBM-2 for 24 hours.
HMVECs were grown to confluence on glass coverslips coated with 1% gelatin. The cells were fixed for 10 minutes in 4% paraformaldehyde in PBS, and incubated for 5 min in 0.5% Triton X-100 in PBS. After blocking, the monolayers were processed for staining with anti-VE-cadherin monoclonal antibody (BD Biosciences Pharmingen, San Diego, Calif., United States) and Alexa Fluor® 488 goat anti-mouse IgG, rhodamine phalloidin (Molecular Probes, Eugene, Oreg., […]) for F-actin staining and TOPRO-3-iodine (Molecular Probes) for nuclear staining. Fluorescence images were obtained using a Bio Rad MRC confocal fluorescence microscope. For experiments using cells treated with serum from patients, serum Ang-2 concentration was first measured by ELISA. Then, patient serum was diluted to 10% with EBM-2 and filtered with low-protein-binding PVL) F membrane (0.22 lm Millipore) prior to application on EC monolayers.

RhoA = assay: Rho activity assay (pull-down) in HMVEC-L
Procedure: as §1

B1: Ang-1: Human recombinant angiopoietin-1 purchased from R&D systems; Tie-2 agonist, endogenous Ang-2 antagonist (protein, listed as Homo sapiens)
chain: MTVFLSFAFLAAILTHIGCSNQRRSPENSGRRYNRIQHGQCAYTFILPEHDGNCRESTTDQYNTNALQRDAPHVEPDFSSQKLQHLEHVMENYTQWLQKLENYIVENMKSEMAQIQQNAVQNHTATMLEIGTSLLSQTAEQTRKLTDVETQVLNQTSRLEIQLLENSLSTYKLEKQLLQQTNEILKIHEKNSLLEHKILEMEGKHKEELDTLKEEKENLQGLVTRQTYIIQELEKQLNRATTNNSVLQKQQLELMDTVHNLVNLCTKEGVLLKGGKREEEKPFRDCADVYQAGFNKSGIYTIYINNMPEPKKVFCNMDVNGGGWTVIQHREDGSLDFQRGWKEYKMGFGNPSGEYWLGNEFIFAITSQRQYMLRIELMDWEGNRAYSQYDRFHIGNEKQNYRLYLKGHTGTAGKQSSLILHGADFSTKDADNDNCMCKCALMLTGGWWFDACGPSNLNGMFYTAGQNHGKLNGIKWHYFKGPSYSLRSTTMMIRPLDF
Rac1 activity (Rac1; HMVEC-L treated with Ang-1): increased within 15 minutes | effect on endotoxin-induced change of Rac1 activity (Rac1; co-incubation with Ang-1): reversed | reversal of gap formation provoked by high Ang-2 sepsis serum (HMVEC monolayers): reversed | effect on MLC phosphorylation caused by high Ang-2 serum (CE2) [1]: inhibited | rescue of endothelial disruption by high Ang-2 HD IL-2 patient serum (HMVEC-L monolayers): significant attenuation in stress fiber formation; also recorded: rescue effect of Ang-1 was confirmed | RhoA activity (RhoA; HMVEC-L treated with Ang-1): decreased 30 minutes after | effect on endotoxin-induced RhoA activity (RhoA; co-incubation with Ang-1): reversed
